We go through 3 molecules from patent US8455427B2, “Methods of modifying insulin signaling using biliverdin reductase” (University of Rochester, priority 2005, dated 2013).

Series [1] concerns BVR in 293A cells. Nature of the series: BVR tyrosine phosphorylation in insulin-treated 293A cells (immunoprecipitation and immunoblotting). In kind it is cell-based, human. To be noted: within 8 min after insulin treatment. Here is the method: (§1) Cell culture and transfection and infection of 293A: 293A cells were grown in 10 cm-plates with Dulbecco's Modified Eagle Medium (DMEM) (Invitrogen, Carlsbad, Calif.) containing 10% fetal bovine serum and 1% penicillin-G/streptomycin for 24 h or until a confluency of 70% was reached. Cells were subsequently transfected with 4 μg of pcDNA3 mutant BVR Y^198 using Transfectin Lipid Reagent (Bio-Rad, Hercules, Calif.), according to the manufacturer's procedure and incubated for 48 h at 37° C. In addition, non-transfected cells were infected with pSuper-Retro-siBVR for 24 h in the presence of 4 μg/ml polybrene. Cells were starved in serum-free DMEM 16 h prior to insulin treatment (50 nM).
Immunoprecipitation and immunoblotting: 293A Cells were plated in 10 cm plates and transfected with appropriate plasmids. Prior to collection, cells were washed twice with cold PBS and lysed in 300 μl cold modified RIPA buffer containing 50 mM Tris (pH7.4), 75 mM NaCl, 2 mM EDTA, 2 mM EGTA, 10 mM NaF, 1% Nonidet P-40, 0.5% sodium deoxycholate, 0.5% sodium vanadate, 1 mM PMSF, 10 μg/ml aprotinin, 1 mM benzamidine, 10 μg/ml leupeptine, and 10 μg/ml pepstatin. Cells sonicated (2×3 sec each) and centrifuged at 10,000×g for 15 min. Protein concentration was determined by Bradford assay (Bio-Rad, Hercules, Calif.). […]

Series [2] deals with BVR in 293A cells. The series is described as follows: BVR reductase activity in insulin-treated 293A cells. To be noted: insulin 50 nM. In kind it is cell-based, human. Here is the method: as §1
(§2) Measurement of BVR Reductase Activity: 293A cells treated with insulin were lysed in buffer containing a protease inhibitor cocktail and phosphatase inhibitors (10 mM NaF, […]). BVR activity was measured at pH 6.7 using NADH as the cofactor as described previously (Huang et al., J. Biol. Chem. 264:7844-9 (1989), which is hereby incorporated by reference in its entirety). The rate of conversion of biliverdin to bilirubin was determined as the increase in absorbance at 450 nm at 25° C. Specific activity is expressed as μmol of bilirubin/min/mg of protein.

For series [3], the system named is human BVR. Nature of the series: BVR autophosphorylation. The format is biochemical. To be noted: pH 8.4, 30 mM MnCl2, 2 h, 30° C. The procedure:
BVR autophosphorylation and kinase activity: To detect autophosphorylation of BVR, GST-hBVR of wild type (wt) and mutant variants were incubated in 50 mM HEPES buffer (pH 8.4) in the presence of 30 mM MnCl2 and 1 mM DTT for 2 h at 30° C. The reaction was started with the addition of 10 μM ATP labeled with 10 μCi [γ-^32P]-ATP and was stopped with the addition of Laemmli sample buffer. Samples were boiled for 3 min and applied to a 8% SDS-PAGE gels, transferred to a PVDF membrane, and then visualized by autoradiography. To measure kinase activity, GST-BVR (5 μg) was incubated in 50 μl kinase buffer containing 50 mM HEPES buffer (pH 8.4), 20 mM MgCl2, 30 mM MnCl2, 1 mM DTT and 10 μM ATP labeled with 10 μCi [γ-^32P]-ATP in the presence of 5 μg substrates: IRS-1 or Raytide or poly glu/tyr (4:1) for 2 h at 30° C. The reaction was started with the addition of ATP and terminated by adding 120 μl 10% H3PO4. 100 μl aliquots were directly transferred to P81 Whatman filters which were subsequently washed extensively in 0.75% phosphoric acid at room temperature. Finally, the filters were submerged in acetone for 5 min, dried, and retained counts were measured using a Beckman LS 6500 liquid scintillation counter (Beckman Coulter, Fullerton, Calif.).

Series [4] has as its system 293A cells. Nature of the series: Insulin-mediated glucose uptake (2-deoxy 1-[3H] glucose). The format is cell-based, human. To be noted: insulin 15 min, vs controls infected with vector alone, p≦0.05. The procedure: as §1
Glucose uptake: Glucose uptake was assessed by measuring 2-deoxy 1-[^3H] glucose (2DG) absorption as described by (Braiman et al. (Mol. Endocrinol. 13:2002-12 (1999)), which is hereby incorporated by reference), with minor modifications. Briefly, after insulin treatment, cells in 6-wells plates were incubated in 1 ml PBS containing 5 mM glucose and 1 μCi/ml 2DG for 15 min. Solution was aspirated rapidly and wells were washed 3 times with cold PBS. Cells were solubilized by addition of 200 μl 1% (w/v) SDS. Radioactivity was measured and data was normalized to protein concentration. Non-specific uptake was determined in the presence of 200 mM of glucose and was subtracted from the total uptake. […]

Series [5] addresses T1, insulin receptor tyrosine kinase (IRK) (Homo sapiens, UniProt P06213).
T1 construct: the 48 kDa cytoplasmic domain of the β-subunit of IRK; purchased Biomol International (Plymouth, Pa.)
Nature of the series: BVR phosphorylation by the insulin receptor tyrosine kinase (IRK), in vitro [32P]-ATP assay. The following applies: for time course of phosphorylation by IRK: incubation with IRK up to 3-4 h, pH 8.0. In kind it is biochemical. The procedure:
BVR phosphoiylation by the insulin receptor tyrosine kinase (IRK): Phosphorylation of BVR by IRK was examined using GST-HBVR fusion protein and the 48 kDa cytoplasmic domain of the β-subunit of IRK. BVR (5 μg) was incubated in 50 μl of IRK kinase buffer containing 50 mM HEPES (pH 8.0), 20 mM MgCl2, 1 mM DTT in the presence of 0.05 μg IRK and 10 μM ATP labeled with 10 μCi [γ-^32P]-ATP. The reaction was started with the addition of labeled ATP and incubated for 2-4 h. Reactions were terminated by addition of Laemmli sample buffer and boiled for 3 min. Samples were subjected to 8% SDS-PAGE and transferred to PVDF membranes for autoradiography.

The nature of series [6]: Reductase activity of purified BVR. In kind it is biochemical, human. To be noted: purified BVR not phosphorylated by IRK. Here is the method: as §2

T1 sequence (P06213 980-1382 limits assumed): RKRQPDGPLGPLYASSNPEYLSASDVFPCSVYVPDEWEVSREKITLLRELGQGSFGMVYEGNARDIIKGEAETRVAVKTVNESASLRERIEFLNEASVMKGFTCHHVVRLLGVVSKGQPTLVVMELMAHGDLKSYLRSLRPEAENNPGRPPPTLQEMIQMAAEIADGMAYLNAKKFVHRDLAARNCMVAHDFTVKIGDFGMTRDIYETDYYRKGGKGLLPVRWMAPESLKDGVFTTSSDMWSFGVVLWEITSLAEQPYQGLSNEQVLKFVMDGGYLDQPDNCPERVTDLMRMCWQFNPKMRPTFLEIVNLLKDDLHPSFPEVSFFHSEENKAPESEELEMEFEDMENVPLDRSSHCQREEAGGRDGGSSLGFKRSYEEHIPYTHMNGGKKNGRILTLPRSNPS

For “insulin: Human insulin purchased from Sigma-Aldrich”, the BVR tyrosine phosphorylation entry in series [1] is on record as “dramatic increase in phosphorylation”. Moreover, the “increase in BVR reductase activity” value in series [2] (1 h after treatment) is given as 2 fold. Further, the “BVR reductase activity, later time” value in series [2] (6 h after treatment) is on record as “gradually returned to basal level”.

B1: Y^198: human BVR point mutant, DQYMK to DQFMK (protein, UniProt P53004 3-296, looked up, variant Y198F)
Biliverdin reductase A: AEPERKFGVVVVGVGRAGSVRMRDLRNPHPSSAFLNLIGFVSRRELGSIDGVQQISLEDALSSQEVEVAYICSESSSHEDYIRQFLNAGKHVLVEYPMTLSLAAAQELWELAEQKGKVLHEEHVELLMEEFAFLKKEVVGKDLLKGSLLFTAGPLEEERFGFPAFSGISRLTWLVSLFGELSLVSATLEERKEDQFMKMTVCLETEKKSPLSWIEEKGPGLKRNRYLSFHFKSGSLENVPNVGVNKNIFLKDQNIFVQKLLGQFSEKELAAEKKRILHCLGLAEEIQKYCCSRK
On to B1, for which the “autophosphorylation of BVR mutants” value in series [3] was “did not result in significant changes in autophosphorylation of BVR”. The insulin-mediated glucose uptake entry in series [4] is given as “increased significantly”. Moreover, in series [5], the “time course of phosphorylation by IRK” value is “less effective substrate for IRK”. For the same molecule, in series [5] (mutant vs wtBVR, IRK 2 h at 30° C.), the “decrease of BVR phosphorylation by IRK caused by point mutation” value is recorded as around 70%.

B2: biliverdin reductase (protein)
chain: MNAEPERKFGVVVVGVGRAGSVRMRDLRNPHPSSAFLNLIGFVSRRELGSIDGVQQISLEDALSSQEVEVAYICSESSSHEDYIRQFLNAGKHVLVEYPMTLSLAAAQELWELAEQKGKVLHEEHVELLMEEFAFLKKEVVGKDLLKGSLLFTSDPLEEDRFGFPAFSGISRLTWLVSLFGELSLVSATLEERKEDQYMKMTVCLETEKKSPLSWIEEKGPGLKRNRYLSFHFKSGSLENVPNVGVNKNIFLKDQNIFVQKLLGQFSEKELAAEKKRILHCLGLAEEIQKYCCSRK
modifications: left off: a dimerising Fc or GST
Take B2: the “BVR reductase activity of the control” value in series [6] is 43.8 μmol per min per mg. Moreover, the “time course of phosphorylation by IRK” value in series [5] was “detected when assessed at 1 h, and gradually increased up to 4 h”.
